Results reported in the supplement of paper PMC7877785.
± gives the uncertainty stated by the source.

Assay: self-splicing fitness, log relative to wild type (ln ratio); higher = more splicing; Tetrahymena group I intron in knt gene, E. coli kanamycin selection, DiMSum; sequences stand for … in CUCUCU…GGAGGGAAAAGUUAUCAGGCAUGCACCUGGUAGCUAGUCUUUAAACCAAUAGAUUGCAUCGGUUUAAAAGGCAAGACCGUCAAAUUGCGGGAAAGGGGUCAACAGCCGUUCAGUACCAAGUCUCAGGGGAAACUUUGAGAUGGCCUUGCAAAGGGUAUGGUAAUAAGCUGACGGACAUGGUCCUAACCACGCAGCCAAGUCCUAAGUCAACAGAUCUUCUGUUGAUAUGGAUGCAGUUCACAGACUAAAUGUCGGUCGGGGAAGAUGUAUUCUUCUCAUAAGAUAUAGUCGGACCUCUCCUUAAUGGGAGCUAGCGGAUGAAGUGAUGCAACACUGGAGCCGCUGGGAACUAAUUUGUAUGCGAAAGUAUAUUGAUUAGUUUUGGAGUACUCGUGGUCG
In short: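 Pooled colonies went to amplicon sequencing on an Illumina HiSeq 2500 after six replicate transformations. The plates were LB agar with 100 μg/mL carbenicillin, 50 μM IPTG and 0.2% rhamnose, with or without 25 μg/mL kanamycin, incubated overnight at 37°C or 30°C. The E. coli BL21(DE3) library had all eight P1ex-region intron nucleotides randomised, the intron placed in the knt kanamycin-resistance gene on pET-22b(+). DiMSum fitness is the error-weighted combination of replicate fold changes, kanamycin against none, normalised to wild type.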

| Sequence | self-splicing fitness (ln) (30 °C) | self-splicing fitness (ln) (37 °C) |
| --- | --- | --- |
| AGAUAGCAAUAUUACGUCUU | -2.52 ± 0.14 | -2.07 ± 0.17 |
| AAGGAGCAAUAUUACGACUC | -1.25 ± 0.15 | -0.365 ± 0.17 |
| UAUCAGCAAUAUUACGGGUU | -1.83 ± 0.1 | -0.944 ± 0.11 |
| ACUGAGCAAUAUUACGACCC | – | -0.357 ± 0.33 |
| AUCAAGCAAUAUUACGUCAG | -3.41 ± 0.18 | -1.92 ± 0.16 |
| GAGUAGCAAUAUUACGUGGU | -3.48 ± 0.25 | -0.852 ± 0.29 |
| GGGUAGCAAUAUUACGAGUU | -0.948 ± 0.092 | -1.38 ± 0.2 |
| UGCUAGCAAUAUUACGCUUU | -2.16 ± 0.14 | -2.22 ± 0.19 |
| ACGCAGCAAUAUUACGGGGG | -3.86 ± 0.2 | -2.54 ± 0.19 |
| GAUGAGCAAUAUUACGAGCC | -0.987 ± 0.31 | -1.53 ± 0.41 |
| GGGUAGCAAUAUUACGAGAC | -3.48 ± 0.32 | -1.9 ± 0.42 |
| AGAUAGCAAUAUUACGUCGC | -3.24 ± 0.39 | -1.21 ± 0.23 |
| UUGUAGCAAUAUUACGUUAA | -1.71 ± 0.14 | -2.31 ± 0.21 |
| CCGAAGCAAUAUUACGCACC | -2.46 ± 0.19 | -2.25 ± 0.5 |
| UCCCAGCAAUAUUACGGACA | -1.63 ± 0.092 | -0.126 ± 0.081 |
| AGAGAGCAAUAUUACGUCAG | -0.659 ± 0.45 | – |
| CUUAAGCAAUAUUACGAGUU | – | -2.42 ± 0.36 |
| UAUAAGCAAUAUUACGGCGU | -0.993 ± 0.093 | -0.232 ± 0.12 |
| GCACAGCAAUAUUACGUGCG | -2.65 ± 0.066 | -1.12 ± 0.066 |

| Sequence | self-splicing fitness (ln) (30 °C) | self-splicing fitness (ln) (37 °C) |
| --- | --- | --- |
| UGUGAGCAAUAUUACGGCGU | -3.33 ± 0.3 | -1.92 ± 0.32 |
| AGAUAGCAAUAUUACGCCGA | -1.89 ± 0.3 | -0.973 ± 0.3 |
| CACGAGCAAUAUUACGUACG | -2.38 ± 0.14 | -0.807 ± 0.15 |
| CGCCAGCAAUAUUACGUUUA | -3.18 ± 0.15 | -2.83 ± 0.17 |
| GCUAAGCAAUAUUACGACCC | -0.411 ± 0.11 | 0.239 ± 0.14 |
| CACUAGCAAUAUUACGCCGU | -1.95 ± 0.35 | -1.18 ± 0.35 |
| UCCCAGCAAUAUUACGUCAC | -4.1 ± 0.33 | -3.23 ± 0.33 |
| UGGGAGCAAUAUUACGGCAA | -2.97 ± 0.47 | -0.863 ± 0.32 |
| UUCGAGCAAUAUUACGGGCA | -2.27 ± 0.17 | -0.711 ± 0.15 |
| AGUUAGCAAUAUUACGACGU | 0.261 ± 0.07 | 0.647 ± 0.083 |
| AAUCAGCAAUAUUACGGGUG | -0.238 ± 0.044 | 0.275 ± 0.06 |
| CACAAGCAAUAUUACGGUGU | -3.86 ± 0.14 | -2.07 ± 0.14 |
| GAUAAGCAAUAUUACGACCC | -0.0888 ± 0.28 | -0.582 ± 0.37 |
| CUAAAGCAAUAUUACGAUUA | -2.51 ± 0.092 | -1.19 ± 0.12 |
| GGGUAGCAAUAUUACGUGCA | -0.359 ± 0.12 | -0.483 ± 0.14 |
| UCCAAGCAAUAUUACGAUAU | -3.24 ± 0.19 | -2.57 ± 0.16 |
| CGCGAGCAAUAUUACGGCGC | -2.93 ± 0.23 | -2.88 ± 0.31 |
| GAGAAGCAAUAUUACGGCUG | -0.733 ± 0.088 | -0.161 ± 0.12 |
| UCUAAGCAAUAUUACGGAUC | -3.37 ± 0.37 | -3.24 ± 0.37 |
